In publication PMC2880635 one finds Km, kcat and kcat/Km data, which are given here for 6 proteins.

Substitutions are numbered along the chain they refer to. Names and notes keep the numbering of the source.

Substrate in the series: O=[N+]([O-])c1ccc(OP(=O)(O)O)cc1
Nature of the series: purified protein, by the assay type. Conditions: other: substrate pNPP.

The mark [1] stands for this setting: Sts-2PGM(E481V), pH 5.0, 37 °C, pH 5.0.
The mark [2] stands for this setting: Sts-2PGM(E481V), pH 7.5, 37 °C, pH 7.5.
[3] abbreviates: Sts-2PGM(Q372V/S582Y), pH 7.5, 37 °C, pH 7.5.
Where [4] appears, read: Sts-2PGM(A446S/S552A), pH 7.5, 37 °C, pH 7.5.
Where [5] appears, read: Sts-2PGM(S552A/S582Y), pH 5.0, 37 °C, pH 5.0.
Setting [6] is: Sts-2PGM(S552A/S582Y), pH 7.5, 37 °C, pH 7.5.
Setting [7] is: Sts-2PGM wild-type, pH 5.0, 37 °C, pH 5.0.
The mark [8] stands for this setting: Sts-2PGM wild-type, pH 7.5, 37 °C, pH 7.5.
[9] abbreviates: Sts-1PGM, pH 5.0, 37 °C, pH 5.0.
Where [10] appears, read: Sts-1PGM, pH 7.5, 37 °C, pH 7.5.

B1: Sts-2PGM(E481V) (Mus musculus; E481V) (protein)
chain: ATISRRGILVVRHGERVDQVFGKSWLQQCTTADGKYYRPDLNFPRSLPRRSNGIKDFENDPPLSSCGIFQARLAGEALLDSGVRVTAVFASPALRCVQTAKHILEELKLEKKLKIRVEPGIFEWMKWVASKATLTFLTLEELKEANFNVDLDYRPALPRCSLMPAESYDQYVERCAVSMGQIINTCPQDMGITLIVSHSSALDSCTRPLLGLPPRECGDFAQLVRKIPSLGMCFCEENREDGKWDLVNPPVKTLTHGANSVFNWRNWISSN
As for B1, under setting [1], the Km came to 200 ± 20 µM, the kcat amounted to 0.65 s⁻¹ and the kcat/Km is 3100 M⁻¹ s⁻¹. In addition, under setting [2], the Km amounted to 1000 ± 150 µM, the kcat came to 0.15 s⁻¹ and the kcat/Km was determined as 150 M⁻¹ s⁻¹.

B2: Sts-2PGM(Q372V/S582Y) (Mus musculus; Q372V/S582Y) (protein)
chain: B1 chain with Q19V, V128E, S229Y
For the protein B2, under setting [3], the Km stood at 700 ± 100 µM, the kcat is 0.4 s⁻¹ and the kcat/Km was determined as 571 M⁻¹ s⁻¹.

B3: Sts-2PGM(A446S/S552A) (Mus musculus; A446S/S552A) (protein)
chain: B1 chain with A93S, V128E, S199A
Regarding B3, under setting [4], the Km worked out at 640 ± 80 µM, the catalytic constant (kcat) turned out to be 0.27 s⁻¹ and the specificity constant (kcat/Km) was determined as 420 M⁻¹ s⁻¹.

B4: Sts-2PGM(S552A/S582Y) (Mus musculus; S552A/S582Y) (protein)
chain: B1 chain with V128E, S199A, S229Y
Regarding B4, under setting [5], the Km is 620 ± 100 µM, the kcat stood at 2.9 s⁻¹ and the kcat/Km turned out to be 4700 M⁻¹ s⁻¹. Under setting [6], the Km was 1900 ± 200 µM, the kcat was 0.43 s⁻¹ and the kcat/Km turned out to be 226 M⁻¹ s⁻¹.

B5: Sts-2PGM (Mus musculus) (protein)
chain: B1 chain with V128E
On to B5, for which, under setting [7], the Km is 1500 ± 80 µM, the kcat worked out at 0.3 s⁻¹ and the kcat/Km stood at 200 M⁻¹ s⁻¹. Under setting [8], the Km came to 2000 ± 130 µM, the catalytic constant (kcat) is 0.03 s⁻¹ and the kcat/Km is 15 M⁻¹ s⁻¹.

B6: Sts-1PGM (Mus musculus) (protein)
chain: GPQKRCLFVCRHGERMDVVFGKYWLSQCFDAKGRYIRTNLNMPHSLPQRSGGFRDYEKDAPITVFGCMQARLVGEALLESNTVIDHVYCSPSLRCVQTAHNILKGLQQDNHLKIRVEPGLFEWTKWVAGSTLPAWIPPSELAAANLSVDTTYRPHIPVSKLAISESYDTYINRSFQVTKEIISECKSKGNNILIVAHASSLEACTCQLQGLSPQNSKDFVQMVRKIPYLGFCSCEELGETGIWQLTDPPILPLTHGPTGGFNWRETLLQE
In the case of B6, under setting [9], the Km is 20 ± 9 µM, the kcat is 63.4 s⁻¹ and the kcat/Km is 3.15e+06 M⁻¹ s⁻¹. Under setting [10], the Km was 500 ± 60 µM, the kcat came out at 70 s⁻¹ and the kcat/Km was determined as 141000 M⁻¹ s⁻¹.
